Patent US20190071490A1 (BETH ISRAEL DEACONESS MEDICAL CENTER, published 2019)
Residue numbers refer to the chain shown, from its start.

T1: human α-CGRP 1-37 (WT) (human, C-terminal amide; N-terminal biotin when captured on the SA chip; 125I-labelled in the radioligand assay)
T1 construct: also called α-human
T1 peptide: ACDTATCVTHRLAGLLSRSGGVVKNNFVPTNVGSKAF

T2: rat α-CGRP (1-37) (rat, C-terminal amide; N-terminal biotin when captured on the SA chip)
T2 construct: also called rat α (1-37); α-rat
T2 peptide: T1 peptide with A1S, D3N, N25D, K35E

B1: G1 variant M1 Fab (Fab, V domains shown)
VH: EVQLVESGGGLVQPGGSLRLSCAASGFTFSNYWISWVRQAPGKGLEWVAEIRSESDASATHYAEAVKGRFTISRDNAKNSLYLQMNSLRAEDTAVYYCLLYFDYGLAIQNYWGQGTLVTVSS
VL: EIVLTQSPATLSLSPGERATLSCKASKRVTTYVSWYQQKPGQAPRLLIYGASNRYLGIPARFSGSGSGTDFTLTISSLEPEDFAVYYCSQSYNYPYTFGQGTKLEIK
notes: Fab; constant domains as m1
B2: G1 variant M14 Fab (Fab, V domains shown)
VH: B1 VH with L99T, L100K
VL: B1 VL
notes: Fab; constant domains as m1
B3: G1 variant M28 Fab (Fab, V domains shown)
VH: B1 VH with E54R, A57N, L99T, L100V
VL: B1 VL with R28N, T30D
notes: Fab; constant domains as m1
B4: G1 variant M32 Fab (Fab, V domains shown)
VH: B1 VH with E54K, A57H, L99T, L100V
VL: B1 VL with R28N, T30G
notes: Fab; constant domains as m1
B5: G1 variant M4 Fab (Fab, V domains shown)
VH: B1 VH with L99A, L100V
VL: B1 VL
notes: Fab; constant domains as m1
B6: G1 variant M17 Fab (Fab, V domains shown)
VH: B1 VH with L99T, L100V
VL: B1 VL
notes: Fab; constant domains as m1
B7: G1 variant M6 Fab (Fab, V domains shown)
VH: B1 VH with L99N, L100A
VL: B1 VL
notes: Fab; constant domains as m1
B8: G1 variant M3 Fab (Fab, V domains shown)
VH: B1 VH with L99A, L100S
VL: B1 VL
notes: Fab; constant domains as m1
B9: G1 variant M16 Fab (Fab, V domains shown)
VH: B1 VH with L99T, L100S
VL: B1 VL
notes: Fab; constant domains as m1
B10: G1 variant M19 Fab (Fab, V domains shown)
VH: B1 VH with L99V, L100R
VL: B1 VL
notes: Fab; constant domains as m1
B11: G1 variant M8 Fab (Fab, V domains shown)
VH: B1 VH with L99N, L100G
VL: B1 VL
notes: Fab; constant domains as m1
B12: G1 variant M29 Fab (Fab, V domains shown)
VH: B1 VH with L99T, L100V
VL: B1 VL with R28N, T30G
notes: Fab; constant domains as m1
B13: G1 variant M12 Fab (Fab, V domains shown)
VH: B1 VH with L99S, L100V
VL: B1 VL
notes: Fab; constant domains as m1
B14: G1 variant M33 Fab (Fab, V domains shown)
VH: B1 VH with E54K, A57N, S58G, L99T, L100V
VL: B1 VL with R28N, T30G
notes: Fab; constant domains as m1
B15: G1 variant M30 Fab (Fab, V domains shown)
VH: B1 VH with E54K, A57E, L99T, L100V
VL: B1 VL with R28N, T30G
notes: Fab; constant domains as m1
B16: G1 variant M2 Fab (Fab, V domains shown)
VH: B1 VH with L99A, L100R
VL: B1 VL
notes: Fab; constant domains as m1
B17: G1 variant M18 Fab (Fab, V domains shown)
VH: B1 VH with L99V, L100G
VL: B1 VL
notes: Fab; constant domains as m1
B18: G1 variant M24 Fab (Fab, V domains shown)
VH: B1 VH with L99T, L100V
VL: B1 VL with R28L
notes: Fab; constant domains as m1
B19: G1 variant M15 Fab (Fab, V domains shown)
VH: B1 VH with L99T, L100P
VL: B1 VL
notes: Fab; constant domains as m1
B20: G1 variant M5 Fab (Fab, V domains shown)
VH: B1 VH with L99A, L100Y
VL: B1 VL
notes: Fab; constant domains as m1
B21: G1 variant M11 Fab (Fab, V domains shown)
VH: B1 VH with L99S, L100T
VL: B1 VL
notes: Fab; constant domains as m1
B22: G1 variant M27 Fab (Fab, V domains shown)
VH: B1 VH with L99T, L100V
VL: B1 VL with R28N, T30A
notes: Fab; constant domains as m1
B23: G1 variant M22 Fab (Fab, V domains shown)
VH: B1 VH with L99T, L100A
VL: B1 VL with R28W
notes: Fab; constant domains as m1
B24: G1 variant M21 Fab (Fab, V domains shown)
VH: B1 VH with L99S, L100A
VL: B1 VL with R28W
notes: Fab; constant domains as m1
B25: G1 variant M10 Fab (Fab, V domains shown)
VH: B1 VH with L99S, L100S
VL: B1 VL
notes: Fab; constant domains as m1
B26: G1 variant M7 Fab (Fab, V domains shown)
VH: B1 VH with L99N, L100C
VL: B1 VL
notes: Fab; constant domains as m1
B27: G1 variant M25 Fab (Fab, V domains shown)
VH: B1 VH with L99T, L100V
VL: B1 VL with R28N
notes: Fab; constant domains as m1
B28: G1 variant M26 Fab (Fab, V domains shown)
VH: B1 VH with A57G, L99T, L100V
VL: B1 VL with R28N
notes: Fab; constant domains as m1
B29: G1 variant M20 Fab (Fab, V domains shown)
VH: B1 VH with L99R
VL: B1 VL with R28W
notes: Fab; constant domains as m1
B30: G1 variant M13 Fab (Fab, V domains shown)
VH: B1 VH with L99T, L100G
VL: B1 VL
notes: Fab; constant domains as m1
B31: G1 variant M31 Fab (Fab, V domains shown)
VH: B1 VH with E54K, A57G, L99T, L100V
VL: B1 VL with R28N, T30G
notes: Fab; constant domains as m1
B32: G1 variant M23 Fab (Fab, V domains shown)
VH: B1 VH with L99T, L100V
VL: B1 VL with R28G
notes: Fab; constant domains as m1
B33: G1 variant M9 Fab (Fab, V domains shown)
VH: B1 VH with L99N, L100Y
VL: B1 VL
notes: Fab; constant domains as m1

Experiments:
human α-CGRP 1-37 (WT) = molecular target: T1, human α-CGRP 1-37 (WT); assay: Biacore, 37°C, Fab over CGRP on SA chip
Experimental: (§1) Biacore assay for affinity determination. […] All Biacore assays were conducted in HBS-EP running buffer (10 mM HEPES pH 7.4, 150 mM NaCl, 3 mM EDTA, 0.005% v/v polysorbate P20). CGRP surfaces were prepared by diluting the N-biotinylated CGRP to a concentration of less than 0.001 mg/mL into HBS-EP buffer and injecting it across the SA sensor chip using variable contact times. […] Samples were typically injected for 1 minute at 100 μL/min and dissociation times of at least 10 minutes were allowed. […] An entire titration series (typically generated in duplicate) was fit globally to a 1:1 Langmuir binding model using the BIAevaluation program. This returned a unique pair of association and dissociation kinetic rate constants (respectively, kₒₙ and koff) for each binding interaction, whose ratio gave the equilibrium dissociation constant (KD=koff/kₒₙ). […]

rat α-CGRP (1-37) = molecular target: T2, rat α-CGRP (1-37); assay: Biacore, 37°C, Fab over CGRP on SA chip
Experimental: as §1

Row | Binder | koff (human α-CGRP 1-37 (WT)) [s⁻¹] | koff (rat α-CGRP (1-37)) [s⁻¹] | Kd (human α-CGRP 1-37 (WT)) [nM] | Kd (rat α-CGRP (1-37)) [nM]
1 | B1 | 0.000173 | 0.0011 | – | –
2 | B2 | ≤ 1e-05 | – | ≤ 0.06 | –
3 | B3 | 9.96e-05 | 0.00125 | 0.62 | 69.4
4 | B4 | 0.000271 | 0.00296 | 1.69 | 164
5 | B5 | 6.95e-05 | 0.00152 | 0.43 | 84.4
6 | B6 | 0.000185 | 0.00206 | 1.16 | 114
7 | B7 | 0.000133 | 0.000784 | 0.83 | 43.6
8 | B8 | 0.00021 | 0.002 | 1.7 | 61
9 | B9 | 0.000165 | 0.000996 | 1.03 | 55.3
10 | B10 | ≤ 1e-05 | – | ≤ 0.06 | –
11 | B11 | 9.2e-05 | 0.000745 | 0.58 | 41.4
12 | B12 | 0.00038 | 0.00359 | 2.38 | 199
13 | B13 | 0.000101 | 0.00194 | 0.63 | 108
14 | B14 | 0.00075 | 0.00922 | 4.69 | 512
15 | B15 | 0.00059 | 0.00638 | 3.69 | 354
16 | B16 | 0.00031 | 0.0026 | 3 | 58
17 | B17 | 7.03e-05 | 0.00122 | 0.44 | 67.8

Row | Binder | koff (human α-CGRP 1-37 (WT)) [s⁻¹] | koff (rat α-CGRP (1-37)) [s⁻¹] | Kd (human α-CGRP 1-37 (WT)) [nM] | Kd (rat α-CGRP (1-37)) [nM]
18 | B18 | 0.000148 | 0.00104 | 0.93 | 57.8
19 | B19 | 1.58e-05 | 0.00115 | 0.1 | 63.9
20 | B20 | 3.22e-05 | 0.000735 | 0.2 | 40.8
21 | B21 | 0.000283 | 0.00483 | 1.77 | 268
22 | B22 | 0.000357 | 0.00341 | 2.23 | 189
23 | B23 | 0.000116 | 0.0011 | 0.73 | 61.1
24 | B24 | 0.000142 | 0.000695 | 1.23 | 15.2
25 | B25 | 0.000173 | 0.00151 | 1.08 | 83.9
26 | B26 | 0.000243 | 0.000918 | 1.52 | 51
27 | B27 | 0.00014 | 0.0014 | 1.3 | 76
28 | B28 | 0.000148 | 0.000924 | 0.93 | 51.3
29 | B29 | 0.000136 | 0.00144 | 0.85 | 80
30 | B30 | 0.000186 | 0.00184 | 1.16 | 102
31 | B31 | 0.000347 | 0.00361 | 2.17 | 201
32 | B32 | 0.00013 | 0.000799 | 0.81 | 44.4
33 | B33 | ≤ 1e-05 | – | ≤ 0.06 | –
